Results reported in patent publication US20210269549A1, “ANTI-SAS1B ANTIBODIES, ASSOCIATED METHODS OF USE, AND COMPOSITIONS AND METHODS FOR DETECTING AND TREATING CANCER” (UNIVERSITY OF VIRGINIA PATENT FOUNDATION, priority 2015, published 2021).
Substitutions are numbered along the chain they refer to.

B1: SB1: mouse anti-SAS1B monoclonal antibody, IgG2a; VH SEQ ID NO:12, VL SEQ ID NO:13 (antibody, listed as Mus musculus, V domains shown)
VH: EVQLQQSGPELVKPGSSVKISCKASGYTFTDYNMDWVKQSHGKSLEWIGAINPNNGGTSYNQKFKGKATLTVDKSSSTAYMELRSLTSEDSAVYYCATNEYWGQGTTLTVSS
VL: NIVMTQSPKSMSMSVGERVTLSCKASENVGTYVSWYQQKPEQSPKLLIYGASNRYTGVPDRFTGSGSATDFTLTISSVQAEDLADYHCGQSYSYPWTFGGGTKLEIK
B2: SB2: mouse anti-human SAS1B monoclonal antibody, IgG2b; VH SEQ ID NO:14, VL SEQ ID NO:15 (antibody, listed as Mus musculus, V domains shown)
VH: EVQLQQSGPELVKPGSSVKISCKASGYTFTDYNMVWVKQSHGKSLEWIGAVNPNNGGTSYNQKFKGKATLTVDKSSSTAYMELRSLTSEDSAVYYCVPNWDWFAYWGQGTLVTVSA
VL: DVLMTQTPLSLPVSLGDQASISCRSSQSLVHSNGNTYLEWYLQKPGQSPNLLIYKVSNRFSGVPDRFSGSGSGTDFTLKISRVEAEDLGVYYCFQGSHVPFTFGSGTKLEIK
B3: SB4: mouse anti-human SAS1B monoclonal antibody, IgG2a; VH SEQ ID NO:16, VL SEQ ID NO:17 (antibody, listed as Mus musculus, V domains shown)
VH: B2 VH with A24P, V37M, V51I, S59T, V97A
VL: B2 VL with L29I, V30L, N50K
B4: SB5: mouse anti-human SAS1B monoclonal antibody, IgG2b; VH SEQ ID NO:16, VL SEQ ID NO:18 (antibody, listed as Mus musculus, V domains shown)
VH: B2 VH with A24P, V37M, V51I, S59T, V97A
VL: B2 VL with T7I, L29I, V30L, N50K

Experiments:
[1] = biological target: T1, mouse SAS1B (Mus musculus, UniProt Q6HA09); assay: Western blot of mouse SAS1B probed with anti-human SAS1B murine mAbs; assay type: binding; details: Table 1
T1 sequence (Q6HA09 24-435): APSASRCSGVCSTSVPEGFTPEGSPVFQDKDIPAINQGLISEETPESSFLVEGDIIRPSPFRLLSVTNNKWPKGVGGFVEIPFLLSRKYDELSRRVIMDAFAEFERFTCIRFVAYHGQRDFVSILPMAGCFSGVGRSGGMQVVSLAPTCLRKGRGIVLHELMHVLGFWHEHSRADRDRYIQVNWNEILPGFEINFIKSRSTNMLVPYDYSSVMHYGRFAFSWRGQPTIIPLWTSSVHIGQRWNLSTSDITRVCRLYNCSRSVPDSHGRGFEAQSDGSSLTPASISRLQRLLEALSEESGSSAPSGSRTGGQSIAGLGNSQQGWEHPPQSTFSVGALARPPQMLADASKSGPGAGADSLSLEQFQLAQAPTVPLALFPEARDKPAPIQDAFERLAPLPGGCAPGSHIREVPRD
From the text: A western blot of human SAS1B and mouse SAS1B was probed with anti-human SAS1B murine monoclonal antibodies SB1, SB2, SB3, SB4, SB5, SB6, and SB7.

[2] = system: renal cell carcinoma cell line (M1); assay: Morphology of renal cell carcinoma cell line (M1) after 93 h of antibody drug treatment; assay type: cell-based; details: 1 nM mAb with 15 nM Fab-DMDM
Procedure: The morphology of renal cell carcinoma cell line (M1) after 93 h of anti-EGFR antibody drug treatment was examined.

[3] = system: human uterine cancer cells (MMMT539); assay: Antibody drug conjugate cytotoxicity (ADC) assay, MMMT539; assay type: cell-based; details: 0.1 nM mAb, Fab-DMDM constant at 15 nM, ~90 h
Procedure: The cytotoxic effect of anti-human SAS1B mAbs SB2 and SB5 on human uterine cancer cells (MMMT539) was examined by antibody drug conjugate cytotoxicity (ADC) assay. Human uterine cancer cells MMMT539 were seeded in triplicate on 96 well plate overnight and then treated with SB2 or SB5 and anti-mouse Fab-cleavable-Duocarmycin complex for ˜90 h. The presence of viable live cells per well was measured by total cellular ATP content in relative luminescence unit (RLU). Viability of control live cells (100%) was determined from average of 9 wells in terms of total cellular ATP (in RLU) containing the constant 15 nM Fab-CL-DMDM for each set of antibody/reagent. […] Staurosporine, a general protein kinase inhibitor, was used to induce apoptosis in 1% DMSO as a positive control for the assay.

[4] = system: uterine cancer cell line (MMMT539); assay: Morphology of uterine cancer cells after 93 h of anti-SAS1B antibody drug treatment; assay type: cell-based, human; details: 0.1 nM mAb with 15 nM Fab-DMDM
Procedure: The morphology of uterine cancer cell line (SNU539) and uterine cancer cell line (MMMT539) after 93 h of anti-SAS1B antibody drug treatment were examined.

[5] = biological target: T2, recombinant human SAS1B antigen (Homo sapiens, UniProt Q6HA08); assay: Capture assay by sandwich ELISA; assay type: binding; details: SB2 coupled to magnetic beads, SB5 coupled to HRP as detection agent, 96 well ELISA format
T2 sequence (Q6HA08 24-431): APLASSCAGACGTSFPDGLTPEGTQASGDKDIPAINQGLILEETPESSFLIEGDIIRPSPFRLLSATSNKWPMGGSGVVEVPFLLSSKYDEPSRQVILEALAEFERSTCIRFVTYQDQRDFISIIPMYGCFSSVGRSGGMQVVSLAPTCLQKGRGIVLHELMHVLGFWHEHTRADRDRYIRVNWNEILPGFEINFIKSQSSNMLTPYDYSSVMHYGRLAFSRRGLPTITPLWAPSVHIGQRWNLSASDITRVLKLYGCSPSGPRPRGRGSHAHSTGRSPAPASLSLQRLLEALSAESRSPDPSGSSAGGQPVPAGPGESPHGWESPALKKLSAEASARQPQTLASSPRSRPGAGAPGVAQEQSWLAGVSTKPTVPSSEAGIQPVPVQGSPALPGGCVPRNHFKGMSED
From the text: The antibodies were used to develop a capture assay by sandwich ELISA. The support was a magnetic bead (MB) coupled to SB2, SB3, SB4, or SB5 mAbs. The antigen was a recombinant human SAS1B antigen. Detection was accomplished with mAbs SB2, SB3, SB4, SB5 conjugated with HRP. A HRP substrate was used and TMB was used for quantitation.
The retention of HRP activity after conjugations to SASB1 SB2, SB3, SB4, SB5, and anti-CABYR monoclonal antibody 3A4 was examined. The assay method detected 0.2 femtomole of IgGs. Where SB2 is coupled to magnetic beads and SB5 coupled to HRP is used as a detection agent in a 96 well ELISA format 2.7 pmole/ml of rhSAS1B can be detected.

[6] = system: renal carcinoma cells; assay: ADC assay on renal carcinoma cells; assay type: cell-based; details: 15 nM Fab-DMDM, 4 days
Procedure: The cytotoxic effect of anti-EGFR (AY13), anti-SAS1B (SB2) and anti-CABYR (3A4) monoclonal antibodies on renal carcinoma cells were tested by ADC assay. An average of 3 experiments in triplicate is reported.

[7] = system: PDAC cell line known as 366; assay: Live indirect immunofluorescence cell surface staining, 366; assay type: cell-based, human; details: for Cells staining for cell surface SAS1B: 366, primary antibody 20 ug/mL; for Recognition of cell surface SAS1B: live 366 cells, primary antibodies 20 ug/mL
Procedure: (§1) Live MPanc96 cells (pancreatic ductal adenocarcinoma cell line) were incubated with different anti-SAS1B monoclonal antibodies (as well as DAPI stain) for nucleus localization. Cells were fixed and permeabilized after primary and secondary antibody incubation thus fluorescence staining observed represents surface localized SAS1B. Monoclonal antibodies SB4 and SB5 were used, as well as normal rabbit or mouse IgG's as a negative control. All primary antibodies were used at a concentration of 20 ug/mL.
(§2) The live indirect immunofluorescence protocol is as follows. The cells were dissociated with Acutase and plated on fibronectin coated coverslips. MPanc96 cells were allowed to grow 2-3 days and 366 cells were allowed to grow for 3-4 days. The cells were blocked (blocking 1 solution) with 5% NGS in media for 30 min at RT and then blocked with 5% NGS in chilled media+0.1% sodium azide (blocking 2 solution) for 30 min on ice. The primary antibody (SB4, SB5 or control) was added at 20 ug/mL in blocking 2 solution for 2 hours on ice at 4° C. The cells were washed 3× for 5 minutes each on ice. The secondary antibody (goat anti-Ms/Rb Alexa488 (1:500)) was added in blocking 2 solution for 1 hour in dark on ice at 4° C. The cells were washed 3× for 5 min each on ice and then were fixed with 4% PFA-PBS for 15 min in the dark at RT. The cells were washed 2× for 5 min each at RT and then stained with DAPI stain (1:1000) for 10 min at RT. The cells were washed 2× for 5 min each at RT and then were treated with prolong gold antifade. […] About 10-20% of the SB5 treated cells stained for SASB1.

[8] = system: MPanc96 cells (pancreatic ductal adenocarcinoma cell line); assay: Live indirect immunofluorescence cell surface staining, MPanc96; assay type: cell-based, human; details: for Cells staining for cell surface SAS1B: MPanc96, primary antibody 20 ug/mL; for Immunoreaction with cell surface localized SAS1B: live MPanc96, primary antibodies 20 ug/mL
Procedure: as §1, §2

Molecule | Specifically binds mouse and human SAS1B [1] | Cell killing and inhibition of cell proliferation (morphology) [2] | Cancer cells killed [3] [%] | Cell killing and inhibition of cell proliferation (morphology) [4] | rhSAS1B that can be detected [5] [pmol/mL] | Cytotoxic effect [6] | Cells staining for cell surface SAS1B [7] | Recognition of cell surface SAS1B [7] | Cells staining for cell surface SAS1B [8] | Immunoreaction with cell surface localized SAS1B [8]
B1 | Yes | – | – | – | – | – | – | – | – | –
B2 | – | a large number of rounded dead cells | 87 | clear cell killing and inhibition of cell proliferation | 2.7 | cytotoxic effect at 0.01, 0.1 nM and higher concentrations | – | – | – | –
B3 | – | – | – | – | – | – | 65-80% | recognize cell surface SAS1B in pancreatic cancer cell lines | 65-80% | immunoreact with cell surface localized SAS1B
B4 | – | clear cell killing and inhibition of cell proliferation properties | 75 | clear cell killing and inhibition of cell proliferation | 2.7 | – | 10-20% | recognize cell surface SAS1B in pancreatic cancer cell lines | 10-20% | immunoreact with cell surface localized SAS1B
